How the values were obtained:
[1] = target: Ran (recombinant, GTP form) (UniProt P62826); test: inhibition of GAP-induced GTP hydrolysis on Ran
[2] = target: Ran (recombinant, GTP form) (UniProt P62826)

Row | Kd [1] [nM] | offrate [2] [h] | Substance
1 | 0.8 | – | recombinant importin-β (from UniProt Q14974 1-876) (natural protein; other documents disagree on this pair)
2 | 25 | 2 | recombinant Xenopus RanBP7 with COOH-terminal his-tag (natural protein)

Source: paper PMC2139951
